First the molecules themselves.
B1: 539C-M0016-E11 (Fab, V domains shown)
VH: EVQLLESGGGLVQPGGSLRLSCAASGFTFSFYVMDWVRQAPGKGLEWVSGIGPSGGSTDYADSVKGRFTISRDNSKNTLYLQMNSLRAEDTAVYYCTRIRYDSSGYPTDAFDIWGQGTMVTVSS
VL: DIQMTQSPATLSLSPGERATLSCRASQSVSSYLAWYQQKPGQAPRLLIYDASNRATGIPARFSGSGSGTDFTLTISSLEPEDFAVYYCQQRSNWPLTFGGGTKVEIKR
notes: It was tested as Fab on phage, as soluble Fab, and biotinylated in the ECL assay
B2: 539C-R0004-G04 (Fab, V domains shown)
VH: EVQLLESGGGLVQPGGSLRLSCAASGFTFSDYDMHWVRQAPGKGLEWVSGISPSGGWTWYADSVKGRFTISRDNSKNTLYLQMNSLRAEDTAVYYCARDWYSSGLDYWGQGTLVTVSS
VL: QYELTQPPSVSVAPGQTARIICGGNDIGSKGVHWYHQKAGQAPVLLVYDNTDRPSGIPERFSGSNSGNTAALTITRVEAGDEADYFCQVWDSTGEHAVFGGGTKLTVL
notes: A Fab from the phage display library with a lambda light chain; Only the starts of the constant regions are printed; The VL is built from the FR/CDR columns because the joined LV-AA print (r109-r111) reads ADYEC where LV-FR3 reads ADYFC
B3: 539C-R0010-D06 (Fab, V domains shown)
VH: EVQLLESGGGLVQPGGSLRLSCAASGFTFSDYSMYWVRQAPGKGLEWVSYISSSGGNTEYADSVKGRFTISRDNSKNTLYLQMNSLRAEDTAMYYCATTPSIWLGDLLENGPYWGQGTLVTVSS
VL: QYELTQPHSVSESPGKTVTISCTRSNGTIDNSFVQWYQQRPGSAPTTVIYEDTQRPSGVPDRFSGSIDSSSNSASLTISGLKTEDEADYYCQSYDSTNRGVFGGGTKLTVL
notes: A Fab from the phage display library with a lambda light chain; Only the starts of the constant regions are printed (GQPKAAP)
B4: 539C-R0010-B06 (Fab, V domains shown)
VH: EVQLLESGGGLVQPGGSLRLSCAASGFTFSEYQMNWVRQAPGKGLEWVSSIYSSGGGTAYADSVKGRFTISRDNSKNTLYLQMNSLRAEDTAVYYCAKDQGDGYNYGVGLDYWGQGTLVTVSS
VL: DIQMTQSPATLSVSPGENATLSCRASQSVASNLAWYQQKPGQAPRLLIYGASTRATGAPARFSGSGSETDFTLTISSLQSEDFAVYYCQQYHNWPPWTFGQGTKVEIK
notes: A Fab from the phage display library with a kappa light chain; Only the starts of the constant regions are printed (RTVAAPS)
B5: 539C-R0010-C05 (Fab, V domains shown)
VH: EVQLLESGGGLVQPGGSLRLSCAASGFTFSGYGMGWVRQAPGKGLEWVSYIVPSGGATDYADSVKGRFTISRDNSKNTLYLQMNSLRAEDTAVYYCARAYYYDSSGFDIWGQGTMVTVSS
VL: DIQMTQSPSSLSASVGDRVTITCLPSQDISVYLNWYQQKPGEAPKLLISATSDLQSGVPSRFGGSGYGTDFSLTITSLQREDFATYYCQQSYSLPFTFGGGTRVEIK
notes: A Fab from the phage display library with a kappa light chain; Only the starts of the constant regions are printed
B6: 539C-M0021-E01 (Fab, V domains shown)
VH: EVQLLESGGGLVQPGGSLRLSCAASGFTFSVYPMIWVRQAPGKGLEWVSYISSSGGQTWYADSVKGRFTISRDNSKNTLYLQMNSLRAEDTATYYCARGDDYDSSGPDYWGQGTLVTVSS
VL: DIQMTQSPSSLSASEGDRITLTCRASQSISIYLNWYQQKPGRAPKLLMYAATTLQSGVPSRFSGSGSGTDFTLTISGLRPEDFATYYCQQSYDIPLTFGGGTKVEIKR
notes: It was tested as Fab on phage and as soluble Fab
B7: 539C-R0010-C06 (Fab, V domains shown)
VH: EVQLLESGGGLVQPGGSLRLSCAASGFTFSSYNMAWVRQAPGKGLEWVSVIVPSGGLTGYADSVKGRFTISRDNSKNTLYLQMNSLRAEDTAVYYCARERGGFYSSGWYRYWFDPWGQGTLVTVSS
VL: DIQMTQSPSSLSASVGDRVTITCRASQNINTFLNWYQQKPGKAPKLLIYGASSLQSGVPSRFSGSGSGTDFTLTISSLQPEDFATYYCQQSSDALVYNFGQGTKLEIK
notes: as for B5
B8: 539C-R0010-F06 (Fab, V domains shown)
VH: EVQLLESGGGLVQPGGSLRLSCAASGFTFSDYHMSWVRQAPGKGLEWVSGISSSGGETFYADSVKGRFTISRDNSKNTLYLQMNSLRAEDTAVYYCASGSHRDGYNLGYFDYWGQGTLVTVSS
VL: DIQMTQSPASLSASVGDRVTITCQASRDIGEYLNWYQQKAGKPPKLLISDATTLETGVPSRFSGTGSGTEFLFTISSVEPEDFATYYCQQYDDLTWISFGPGTRLDVK
notes: as for B5
B9: 539C-R0010-F05 (Fab, V domains shown)
VH: EVQLLESGGGLVQPGGSLRLSCAASGFTFSWYAMVWVRQAPGKGLEWVSGISPSGGLTSYADSVKGRFTISRDNSKNTLYLQMNSLRAEDTAVYYCARKQMSPDYYYGMDVWGQGTTVTVSS
VL: QSVLTQPPSVSVAPGQTATISCEGDNIGSKSVHWYQQRPGQAPVLVVYDDYDRPSGIPERFSGFNSGNTATLTIYRVEAGDEADFYCQVRDSRTEERVFGGGTKLTVL
notes: A Fab from the phage display library with a lambda light chain; Only the starts of the constant regions are printed
B10: 539C-R0010-E06 (Fab, V domains shown)
VH: EVQLLESGGGLVQPGGSLRLSCAASGFTFSDYWMFWVRQAPGKGLEWVSGIGPSGGIISYADSVKGRFTISRDNSKNTLYLQMNSLRAEDTAVYYCAKYGDYVSGFDYWGQGTLVTVSS
VL: QSALTQPASVSGSPGQSITISCTGTSSDVGGYKLVSWYQQHPGKVPKLIISEVSYRPSGVSNRFSGSKSGNAASLTISGLQAEDEADYYCSSYTSTSTWVFGGGTKLTVL
notes: as for B9

One experiment addresses T1, DX-2400.
T1 construct: Only the variable domains are printed (joined from rows r3-r12 and r17-r26); It was biotinylated for phage selection; also called DX-2400 IgG; fully human monoclonal anti-MMP-14 antibody
In words: phage ELISA. The text has this:
Three rounds of selection were done against biotinylated DX-2400 after depleting the library using biotinylated-DX-2300 IgG (control antibody that binds unrelated target) and biotinylated matched Vk Fab (371L-X002-A03) (isotype matched control) immobilized on streptavidin magnetic beads. […] Forty-nine unique phage clones which had distinct heavy chains were secondarily screened by phage ELISA and ranked for specific binding to DX-2400. Later 45 soluble Fabs were expressed, purified and screened for non-specific binding to 5% human, cyno, rat, and mouse serum antibodies by using Fab as capture reagent and detecting with alkaline phosphatase-conjugated mouse anti-human Fc gamma-specific antibody.
(In general: In an ELISA, binding on a coated surface is turned into a signal by an enzyme label.)
Regarding B1, the binding result is given as “binds”.

The target in a further experiment is T1, DX-2400. Kind of experiment: phage display selection and ELISA screening. The text has this:
Anti-idiotypic Fabs for DX-2400 were generated by phage selection and screenings using DX-2400 as a target. […] Forty nine were distinct as determined by DNA sequencing. These 49 unique clones were screened as phages and sFabs (soluble Fabs) in 5% pooled normal serum matrices (human, mouse, rat and cynomolgus monkey). Top 10 unique clones were ranked according to the following criteria: strong binding to DX-2400, weak binding to DX-2300, low-non specific binding to streptavidin and Fab control.
On to B2, for which the binding result is on record as “binds”.
Turning to B3, the binding result is given as “binds”.
Take B4: the binding result is on record as “binds”.
For B5, the binding result is reported as “binds”.
With B6, the binding result is “binds”.
As for B7, the binding result is “binds”.
As for B8, the binding result is listed as “binds”.
Still for that read-out and setting: in the case of B9 it was “binds”.
On the same count and under the same terms, in the case of B10 it was “binds”.

The values above are taken from patent US20090275124A1 (DYAX, published 2009).
